Data: article PMC11696143, “A higher order PUF complex is central to regulation of C. elegans germline stem cells” (Nature Communications, 2024)
Changes are numbered by the printed parent chain. Names and notes keep the numbering of the source. Values joined by “and” are separate entries in the source; they are usually repeats but may differ in a detail not shown here. Equal entries are not always repeated. Values belong to the binder of their own block, whether it stands above or below them.

How the values were obtained:
FBF-2 RBD+CT [1] = target: T1, FBF-2 RBD+CT (Caenorhabditis elegans, UniProt Q09312 164-632); assay: EMSA; up to 5 uM FBF-2; EMSA: 5 nM RNA, 10 mM HEPES pH 7.4, 75 mM NaCl, 0.01% Tween 20, 0.1 mg/ml BSA, 0.1 mg/ml yeast tRNA, 2 mM DTT, 4 C overnight; details: protein: recombinant; tags: His6-SUMO, removed by Ulp1; label: 3'-Cy5
T1 sequence: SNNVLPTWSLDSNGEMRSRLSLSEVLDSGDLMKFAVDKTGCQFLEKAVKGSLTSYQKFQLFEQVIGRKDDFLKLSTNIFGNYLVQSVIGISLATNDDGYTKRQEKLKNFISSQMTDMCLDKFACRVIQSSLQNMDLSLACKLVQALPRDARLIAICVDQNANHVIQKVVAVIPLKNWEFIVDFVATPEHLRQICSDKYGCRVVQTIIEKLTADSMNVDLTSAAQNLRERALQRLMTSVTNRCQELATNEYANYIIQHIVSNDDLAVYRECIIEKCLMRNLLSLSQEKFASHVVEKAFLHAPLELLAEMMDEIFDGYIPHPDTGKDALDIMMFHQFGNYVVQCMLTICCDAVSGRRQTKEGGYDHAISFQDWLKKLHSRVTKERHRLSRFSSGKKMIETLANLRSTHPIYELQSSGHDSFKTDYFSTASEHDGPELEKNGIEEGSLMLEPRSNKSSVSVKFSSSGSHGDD

[2] = target: T2, C. elegans FBF-2 RBD+CT (residues 164-632) (C. elegans, UniProt Q09312 164-632); assay: cell-based or functional assay
T2 sequence (looked up): T1 sequence

[3] = target: T2, C. elegans FBF-2 RBD+CT (residues …); assay: ITC; LST-1 variant (100-400 µM) titrated from the syringe into the cell with FBF-2 (10-30 µM); 20 °C; 20 mM HEPES pH 7.4, 150 mM NaCl, 0.5 mM TCEP; no RNA; one-site model; apparent constants; two technical replicates; details: both partners purified
[4] = target: T3, C. elegans FBF-2 RBD (residues 164-575) (C. elegans, UniProt Q09312 164-575); assay: as above; details: both partners purified
T3 construct: His-SUMO tag cleaved with TEV protease (the insert came from an earlier pGEX6p FBF-2 RBD construct); source: E. coli, purified as FBF-2 RBD+CT (Ni-NTA, heparin, Superdex 75); for SEC-MALS and cryo-EM coexpressed with GST-LST-1 19-98 in E. coli BL21-CodonPlus (DE3)-RIL and purified as a complex; not shown: His6-SUMO, N-terminal, cleaved
T3 sequence (looked up): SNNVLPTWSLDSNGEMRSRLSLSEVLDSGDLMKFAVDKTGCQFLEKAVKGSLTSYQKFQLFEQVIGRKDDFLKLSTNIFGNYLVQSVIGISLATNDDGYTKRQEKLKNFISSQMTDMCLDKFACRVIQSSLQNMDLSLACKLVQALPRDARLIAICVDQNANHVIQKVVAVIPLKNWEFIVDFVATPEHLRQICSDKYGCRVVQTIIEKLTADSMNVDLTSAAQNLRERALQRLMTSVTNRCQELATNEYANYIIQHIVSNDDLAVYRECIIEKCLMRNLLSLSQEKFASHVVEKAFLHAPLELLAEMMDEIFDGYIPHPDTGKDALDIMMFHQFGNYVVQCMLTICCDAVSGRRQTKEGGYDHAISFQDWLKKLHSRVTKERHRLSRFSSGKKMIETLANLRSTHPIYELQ

[5] = target: T2, C. elegans FBF-2 RBD+CT (residues …); assay: SEC-MALS; co-purified FBF-2 RBD+CT or RBD/LST-1 19-98 complex (~30 µM) with 29-nt gld-1 FBEa-FBEa* RNA on Superdex-200 10/300 GL; 20 mM HEPES pH 7.4, 150 mM NaCl, 2 mM DTT; details: both partners purified
[6] = target: T3, C. elegans FBF-2 RBD (residues 164-575); assay: as above; details: both partners purified
[7] = target: T3, C. elegans FBF-2 RBD (residues 164-575); assay: FRET or BRET; 2 µM unlabeled FBF-2 RBD pre-incubated with Cy5-labeled LST-1 19-98 (20, 40, 80 nM), then 20 nM 5'-Cy3 gld-1 FBEa-FBEa* RNA; room temperature; FRET from Cy3 on the RNA to Cy5 on LST-1; details: both partners purified
FBF-2 RBD [8] = target: T4, FBF-2 RBD (Caenorhabditis elegans, UniProt Q09312 164-575); assay: EMSA; apparent Kd, Hill fit; EMSA: 5 nM RNA, 10 mM HEPES pH 7.4, 75 mM NaCl, 0.01% Tween 20, 0.1 mg/ml BSA, 0.1 mg/ml yeast tRNA, 2 mM DTT, 4 C overnight; details: protein: recombinant; tags: His-SUMO, removed by TEV; label: 3'-Cy5
T4 sequence: T3 sequence (looked up)

FBF-2 RBD+CT [9] = target: T1, FBF-2 RBD+CT; assay: as above; details: protein: recombinant; tags: His6-SUMO, removed by Ulp1; label: 3'-Cy5
[10] = target: T5, FBF-2 RBD;LST-1 19-98 S74C (Caenorhabditis elegans;Caenorhabditis …, UniProt Q09312;P91820 164-575;19-98, |S74C); assay: FRET; 2 uM FBF-2 RBD; higher FRET than S26C; EMSA: 5 nM RNA, 10 mM HEPES pH 7.4, 75 mM NaCl, 0.01% Tween 20, 0.1 mg/ml BSA, 0.1 mg/ml yeast tRNA, 2 mM DTT, 4 C overnight; details: protein: recombinant;recombinant; tags: His-SUMO, removed by TEV;Cy5-maleimide on C74; chain copies: 2;1; label: 5'-Cy3
T5 sequence 1: T3 sequence (looked up)
T5 sequence 2: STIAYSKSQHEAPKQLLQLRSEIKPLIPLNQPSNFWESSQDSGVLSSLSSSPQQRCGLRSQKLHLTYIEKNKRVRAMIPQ

LST-1 19-98 = target: T6, LST-1 19-98 (Caenorhabditis elegans, UniProt P91820 19-98); assay: EMSA; 10 uM LST-1 19-98; nonspecific intermediate band, seen with FBF-2 present; EMSA: 5 nM RNA, 10 mM HEPES pH 7.4, 75 mM NaCl, 0.01% Tween 20, 0.1 mg/ml BSA, 0.1 mg/ml yeast tRNA, 2 mM DTT, 4 C overnight; details: protein: recombinant; tags: His6-SUMO removed by Ulp1; GST removed by TEV when coexpressed; label: 3'-Cy5
T6 sequence: T5 sequence 2 with C56S

FBF-2 RBD+CT L610A = target: T7, FBF-2 RBD+CT L610A (Caenorhabditis elegans, UniProt Q09312 164-632, L610A); assay: EMSA; apparent Kd, Hill fit; EMSA: 5 nM RNA, 10 mM HEPES pH 7.4, 75 mM NaCl, 0.01% Tween 20, 0.1 mg/ml BSA, 0.1 mg/ml yeast tRNA, 2 mM DTT, 4 C overnight; details: protein: recombinant; label: 3'-Cy5
T7 sequence: T1 sequence with L447A

FBF-2 RBD;LST-1 19-98 = target: T8, FBF-2 RBD;LST-1 19-98 (Caenorhabditis elegans;Caenorhabditis …, UniProt Q09312;P91820 164-575;19-98, |); assay: EMSA; 10 uM LST-1 19-98; apparent Kd; EMSA: 5 nM RNA, 10 mM HEPES pH 7.4, 75 mM NaCl, 0.01% Tween 20, 0.1 mg/ml BSA, 0.1 mg/ml yeast tRNA, 2 mM DTT, 4 C overnight; details: protein: recombinant;recombinant; tags: His-SUMO, removed by TEV;His6-SUMO removed by Ulp1; GST removed by TEV when coexpressed; chain copies: 2;1; label: 3'-Cy5
T8 sequence 1: T3 sequence (looked up)
T8 sequence 2: T5 sequence 2 with C56S

FBF-2 RBD+CT;LST-1 19-98 = target: T9, FBF-2 RBD+CT;LST-1 19-98 (Caenorhabditis elegans;Caenorhabditis …, UniProt Q09312;P91820 164-632;19-98, |); assay: as above; details: protein: recombinant;recombinant; tags: His6-SUMO, removed by Ulp1;His6-SUMO removed by Ulp1; GST removed by TEV when coexpressed; chain copies: 2;1; label: 3'-Cy5
T9 sequence 1: T1 sequence
T9 sequence 2: T5 sequence 2 with C56S

FBF-2 RBD [11] = target: T4, FBF-2 RBD; assay: X-ray crystallography; 2.2 A; EMSA: 5 nM RNA, 10 mM HEPES pH 7.4, 75 mM NaCl, 0.01% Tween 20, 0.1 mg/ml BSA, 0.1 mg/ml yeast tRNA, 2 mM DTT, 4 C overnight; details: protein: recombinant; tags: His-SUMO, removed by TEV

B1: FBEam-FBEa*m (ssRNA)
RNA: AUCAACAGCCAUACAUCAACAUGCCAUUU
- binding result (FBF-2 RBD+CT [1]): no binding

- EMSA: RNA-binding affinity of FBF-2 RBD+CT for the 29-nt FBEa-FBEa* RNA with 10 µM LST-1 19-98 against without LST-1 [2]: 4 fold
- Kd [3]: 1100 nM and 1900 nM
- dH [3]: -14.8 kcal/mol and -10.8 kcal/mol
- stoichiometry N [3]: 0.5 sites and 0.57 sites
- Kd [4]: 480 nM and 520 nM
- dH [4]: -33.2 kcal/mol and -37.5 kcal/mol
- stoichiometry N [4]: 0.46 sites
B2: LST-1 peptide (residues 19-98) spanning PIM-A and PIM-B (domain or fragment, C. elegans, UniProt P91820 19-98, looked up)
chain: T5 sequence 2 with C56S
notes: LST-1 (lateral signaling target 1), C. elegans, residues 19-98 of the N-terminal intrinsically disordered region; Codon-optimised synthetic cDNA in pSMT3; tag removed with Ulp1; also called LST-1^19–98; source: E. coli BL21-CodonPlus (DE3)-RIL, purified (Ni-NTA, heparin, Ni-NTA pass, Superdex 75)

- stoichiometry N [5]: 2 FBF-2 per LST-1
- stoichiometry N [6]: 2 FBF-2 per LST-1
B3: LST-1^19–98 from the GST fusion coexpressed with FBF-2 (domain or fragment, C. elegans, UniProt P91820 19-98, looked up)
chain: T5 sequence 2 with C56S
notes: LST-1, C. elegans, residues 19-98; GST removed with TEV protease; also called GST-LST-1^19–98; not shown: GST, N-terminal, cleaved

- Kd [3]: 24100 nM and 46200 nM
- dH [3]: -11.1 kcal/mol and -11.5 kcal/mol
- stoichiometry N [3]: 1.06 sites and 0.89 sites
- Kd [4]: 1460 nM and 1540 nM
- dH [4]: -12.1 kcal/mol and -12.5 kcal/mol
- stoichiometry N [4]: 0.83 sites and 0.86 sites
B4: LST-1^19–98(B^m): K80A, L83A, Y85A (domain or fragment, C. elegans, UniProt P91820 19-98, looked up)
chain: T5 sequence 2 with C56S, K62A, L65A, Y67A
notes: LST-1, C. elegans, residues 19-98 with PIM-B mutated; PIM-A intact; also called LST-1 B^m; source: E. coli, purified by the same protocol as the wild-type LST-1 19-98

- binding result [7]: binds
B5: LST-1^19–98 S74C labeled with Cy5 (domain or fragment, C. elegans, UniProt P91820 19-98, looked up)
chain: T5 sequence 2
modifications: Cy5 maleimide dye on C74
notes: LST-1, C. elegans, residues 19-98 with a cysteine in place of S74, five residues upstream of PIM-B; Probably made as the wild-type LST-1 19-98 (His6-SUMO, cleaved); also called C74-labeled LST-1^19–98; source: purified; expression not described for this mutant

- Kd [3]: 3700 nM and 2800 nM
- dH [3]: -11.4 kcal/mol and -11.5 kcal/mol
- stoichiometry N [3]: 1.02 sites and 0.98 sites
- Kd [4]: 130 nM and 120 nM
- dH [4]: -15.3 kcal/mol and -16.5 kcal/mol
- stoichiometry N [4]: 1.15 sites and 1.05 sites
B6: LST-1^19–98(A^m): K32A, L35A (domain or fragment, C. elegans, UniProt P91820 19-98, looked up)
chain: T5 sequence 2 with K14A, L17A, C56S
notes: LST-1, C. elegans, residues 19-98 with PIM-A mutated; PIM-B intact; also called LST-1 A^m; source: E. coli, purified by the same protocol as the wild-type LST-1 19-98

B7: FBEa-FBEa*m (ssRNA)
RNA: AUCAUGUGCCAUACAUCAACAUGCCAUUU
- Kd (FBF-2 RBD [8]): 145 ± 4 nM
- Kd (FBF-2 RBD+CT [9]): 1190 ± 9 nM

B8: gld-1 FBEa-FBEa* (FRET) (ssRNA)
RNA: AUCAUGUGCCAUACAUCAUGUUGCCAUUU
- binding result [10]: binds

B9: gld-1 FBEa-FBEa* (EMSA) (ssRNA)
RNA: AUCAUGUGCCAUACAUCAUGUUGCCAUUU
- binding result (LST-1 19-98): binds
- Kd (FBF-2 RBD [8]): 131 ± 10 nM
- Kd (FBF-2 RBD+CT L610A): 80 ± 11 nM
- Kd (FBF-2 RBD+CT [9]): 435 ± 25 nM
- Kd (FBF-2 RBD;LST-1 19-98): 107 ± 3 nM
- Kd (FBF-2 RBD+CT;LST-1 19-98): 109 ± 2 nM

B10: gld-1 FBEa* 11-nt (crystal) (ssRNA)
RNA: CAUGUUGCCAU
- binding result (FBF-2 RBD [11]): binds
